One test deals with HIS-tagged FcγR1A (UniProt P12314). As to the kind of experiment: SPR; Biacore T200; His-tagged FcγR1A captured by an anti-HIS antibody on a CM5 chip; antibody as analyte, single-cycle kinetics, 2.5 to 40 nM, 30 min dissociation; HBS-T pH 7.4; bivalent binding model. In general terms: SPR reads the build-up and loss of mass on a sensor chip optically.
The target in the next test is HIS-tagged FcγR2B (UniProt P31994). The experiment in a line: SPR; Biacore T200; His-tagged FcγR2B or FcγR3A captured by an anti-HIS antibody on a CM5 chip; antibody as analyte, single-cycle titration, 25 to 400 nM, 30 min dissociation; HBS-T pH 7.4; KD from fits to the responses at equilibrium.
The target in the next test is HIS-tagged FcγR3A (UniProt P08637). The test is described as above.
Test [1] concerns the target HIS-tagged HER2 (Homo sapiens (assumed; trastuzumab target, species not stated)) (UniProt P04626). The experiment in a line: SPR; Biacore T200; His-tagged HER2 (4 nM) captured by an anti-HIS antibody on a CM5 chip; antibody as analyte, single-cycle kinetics, 2-fold dilutions 0.5–8 nM, 20 µL/min for 2 min, 60 min dissociation; HBS-T (10 mM HEPES, 150 mM NaCl, 0.05% Tween 20, pH 7.4); bivalent binding model; duplicate.

Consider nine substances from paper PMC8620955.

Values joined by “and” are separate entries in the source; they are usually repeats but may differ in a detail not shown here. Equal entries are not always repeated.

Regarding HEK Trastuzumab (antibody), in the test with HIS-tagged FcγR1A, the Kd worked out at 9.9 nM, the koff stood at 0.001 s⁻¹ and the kon was found to be 110000 M⁻¹ s⁻¹. This substance displayed a Kd with HIS-tagged FcγR2B of 686 nM. In addition, the Kd with HIS-tagged FcγR3A was 433 nM.

Turning to Herceptin (antibody), the Kd in the test with HIS-tagged FcγR1A worked out at 4.7 nM; with HIS-tagged FcγR2B it was 666 nM; in the test with HIS-tagged FcγR3A, 267 nM.

For Trastuzumab A121N (antibody), in the test with HIS-tagged FcγR1A, the Kd was determined as 4.8 nM; the koff is 0.00083 s⁻¹ and 0.00098 s⁻¹; the kon is 170000 M⁻¹ s⁻¹ and 200000 M⁻¹ s⁻¹. Besides, the Kd with HIS-tagged FcγR2B was 3140 nM and 3740 nM. Besides, the Kd in the test with HIS-tagged FcγR3A was 295 nM and 268 nM.

In the case of Trastuzumab L115N (antibody), the Kd is 1.13 nM and 1.16 nM in test [1]; 6.4 nM and 3.7 nM in the test with HIS-tagged FcγR1A; 269 nM and 338 nM in the test with HIS-tagged FcγR2B; 301 nM and 394 nM with HIS-tagged FcγR3A.

Regarding Trastuzumab L177N (antibody), in the test with HIS-tagged FcγR1A, the Kd was 5.6 nM; the koff was 0.0014 s⁻¹ and 0.0015 s⁻¹; the kon was 250000 M⁻¹ s⁻¹ and 260000 M⁻¹ s⁻¹. For the same substance, the Kd with HIS-tagged FcγR2B was 1280 nM and 992 nM. Moreover, in the test with HIS-tagged FcγR3A, the Kd is 535 nM and 551 nM.

As to Trastuzumab L182N (antibody), in the test with HIS-tagged FcγR1A, the Kd is 8.2 nM and 8.1 nM; the koff came to 0.0015 s⁻¹.

Trastuzumab Q160N (antibody): in the test with HIS-tagged FcγR1A, the Kd is 6.5 nM and 6.7 nM; the dissociation rate constant (koff) is 0.00076 s⁻¹; the kon was 120000 M⁻¹ s⁻¹ and 110000 M⁻¹ s⁻¹. For the same substance, in the test with HIS-tagged FcγR2B, the Kd was determined as 143 nM. The Kd with HIS-tagged FcγR3A is 596 nM and 535 nM.

For Trastuzumab Q178N (antibody), the Kd was 2.6 nM and 2.5 nM with HIS-tagged FcγR1A; 485 nM in the test with HIS-tagged FcγR2B; 239 nM and 217 nM with HIS-tagged FcγR3A. In addition, the kon with HIS-tagged FcγR1A came to 370000 M⁻¹ s⁻¹.

Regarding Trastuzumab T198N (antibody), in the test with HIS-tagged FcγR1A, the Kd is 3.8 nM; the koff was 0.00088 s⁻¹ and 0.0009 s⁻¹; the kon was 240000 M⁻¹ s⁻¹. The substance further registered a Kd in the test with HIS-tagged FcγR2B of 666 nM.

Broadly, the koff is the first-order rate constant of dissociation. In general, kon refers to the rate constant with which the complex forms. Read a low kon as slow association.
